Like-named read-outs stand apart in the source and are kept apart here.
Columns and labels:
Test in all cases: phage spot ELISA
[1] = molecular target: T1, PCSK9Δhelix (human, Chemically biotinylated in the phage ELISAs; the site is not given.)
T1 construct: construct M1-Q692 with engineered TEV site, cleaved by TEV; also called His-PCSK9Δhelix; open groove PCSK9Δhelix

[2] = molecular target: T2, proprotein convertase subtilisin/kexin type 9 (PCSK9) (human, UniProt Q8NBP7 31-692)
T2 construct: His-tagged full-length PCSK9 in TR-FRET and SPR, biotinylated in phage ELISA; secreted protein is autoprocessed (prodomain plus catalytic/CRD chain starting at S153); also called rec.PCSK9; His-PCSK9
T2 sequence (Q8NBP7 other isoform, or with tags, fused parts or gaps limits assumed): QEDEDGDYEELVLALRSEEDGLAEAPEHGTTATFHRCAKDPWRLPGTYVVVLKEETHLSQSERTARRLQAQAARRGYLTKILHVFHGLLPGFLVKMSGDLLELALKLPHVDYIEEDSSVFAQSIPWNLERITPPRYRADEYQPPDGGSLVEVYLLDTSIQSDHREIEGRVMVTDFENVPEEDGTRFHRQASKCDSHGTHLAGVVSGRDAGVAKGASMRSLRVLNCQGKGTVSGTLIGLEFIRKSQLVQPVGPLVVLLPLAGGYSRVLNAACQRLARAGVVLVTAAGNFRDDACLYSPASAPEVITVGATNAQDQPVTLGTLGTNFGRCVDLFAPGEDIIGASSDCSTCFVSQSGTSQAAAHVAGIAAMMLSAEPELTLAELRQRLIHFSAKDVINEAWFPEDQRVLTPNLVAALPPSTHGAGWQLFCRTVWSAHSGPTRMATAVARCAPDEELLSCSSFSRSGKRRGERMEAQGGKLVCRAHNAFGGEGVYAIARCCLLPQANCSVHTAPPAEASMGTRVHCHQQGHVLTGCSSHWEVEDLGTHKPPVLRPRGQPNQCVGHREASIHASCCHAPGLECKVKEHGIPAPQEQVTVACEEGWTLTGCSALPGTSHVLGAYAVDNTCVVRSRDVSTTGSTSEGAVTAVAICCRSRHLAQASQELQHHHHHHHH

[3] = molecular target: T1, PCSK9Δhelix; remark: listed apart in the source
Text: (§1) The binding signal of the same phage particle to NeutrAvidin was considered as non-specific binding (“noise”).

[4] = molecular target: T2, proprotein convertase subtilisin/kexin …; remark: listed apart in the source
Text: as §1

T1 sequence (prodomain, as listed by the source mutant limits assumed, chain 1 of 2): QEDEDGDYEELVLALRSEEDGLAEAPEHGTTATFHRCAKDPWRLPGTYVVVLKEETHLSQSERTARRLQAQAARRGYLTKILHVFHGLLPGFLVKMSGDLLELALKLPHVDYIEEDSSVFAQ
T1 sequence (chain, as listed by the source mutant limits assumed, chain 2 of 2): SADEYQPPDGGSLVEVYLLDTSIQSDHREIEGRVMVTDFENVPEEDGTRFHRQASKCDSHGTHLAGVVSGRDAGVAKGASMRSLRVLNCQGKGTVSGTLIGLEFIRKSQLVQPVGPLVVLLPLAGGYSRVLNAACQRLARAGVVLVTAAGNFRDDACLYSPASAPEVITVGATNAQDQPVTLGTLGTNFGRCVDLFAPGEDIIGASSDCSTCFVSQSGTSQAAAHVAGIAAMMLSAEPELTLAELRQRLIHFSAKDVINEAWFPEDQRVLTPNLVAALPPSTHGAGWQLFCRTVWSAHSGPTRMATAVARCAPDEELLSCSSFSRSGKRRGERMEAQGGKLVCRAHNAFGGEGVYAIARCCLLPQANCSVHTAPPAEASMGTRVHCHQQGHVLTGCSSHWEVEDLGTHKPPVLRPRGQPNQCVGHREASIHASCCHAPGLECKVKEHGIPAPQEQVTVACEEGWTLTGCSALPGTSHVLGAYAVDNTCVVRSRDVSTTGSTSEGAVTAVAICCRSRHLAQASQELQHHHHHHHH

| Binder | ELISA [1] | s/n ratio [1] | ELISA [2] | s/n ratio [2] | ELISA [3] | s/n ratio [3] | ELISA [4] | s/n ratio [4] |
| --- | --- | --- | --- | --- | --- | --- | --- | --- |
| TAFTSWEEYLDWVGSGSETGLGTYYG [SEQ ID NO 350] | 2.78 | 25.5 | 2.81 | 28.1 |  |  |  |  |
| TAFTSWEEYLDWVGSGSPCRVGYTPC [SEQ ID NO 351] | 2.87 | 25.4 | 2.92 | 27.7 |  |  |  |  |
| TAFTSWEEYLDWVGSGGPWNLNRV [SEQ ID NO 309] |  |  |  |  | 2.7 | 29.3 | 2.68 | 27.6 |
| TAFTSWEEYLDWVGSGGCVKYRGSVSCQESKT [SEQ ID NO 323] |  |  |  |  | 2.73 | 24.2 | 2.85 | 18 |
| TAFTSWEEYLDWVGSGKMTHMKAD [SEQ ID NO 357] | 0.106 | 1.07 | 2.31 | 22.4 |  |  |  |  |
| TAFTSWEEYLDWVGSGKLWNLTRISS [SEQ ID NO 312] |  |  |  |  | 2.69 | 25.8 | 2.87 | 28.1 |
| TAFTSWEEYLDWVGSGACLNHFVSGNMIRC [SEQ ID NO 327] |  |  |  |  | 1.38 | 8.17 | 2.87 | 26.1 |
| TVFTSWEEYLDWV (also called phage displaying Pep2-8) [phage-displayed Pep2-8 (on p8)] |  |  |  |  | 2.1 | 21.8 | 2.98 | 30 |
| TAFTSWEEYLDWV [phage-displayed Pep2-8V2A] |  |  |  |  | 0.07 | 1.07 | 1.27 | 16.7 |
| TAFTSWEEYLDWVGSGNMCYLRGKMDCNIV [SEQ ID NO 347] | 2.83 | 28.6 | 2.91 | 30.9 |  |  |  |  |
| TAFTSWEEYLDWVGSGPLLWNLQKVH [SEQ ID NO 310] |  |  |  |  | 2.76 | 24.4 | 2.75 | 23.5 |
| TAFTSWEEYLDWVGSGQELPNHRRLS [SEQ ID NO 346] | 2.43 | 14.3 | 2.3 | 19.1 |  |  |  |  |
| TAFTSWEEYLDWVGSGGCGYRYMCDMINGL [SEQ ID NO 358] | 3.01 | 30.4 | 2.92 | 32.8 |  |  |  |  |
| TAFTSWEEYLDWVGSGRGEVYDKGGVIVHL [SEQ ID NO 343] | 2.83 | 30.1 | 2.84 | 30.5 |  |  |  |  |
| TAFTSWEEYLDWVGSGNVRCYRDVPSCS [SEQ ID NO 329] |  |  |  |  | 2.68 | 26.3 | 2.66 | 25.9 |
| TAFTSWEEYLDWVGSGGREMRSVIQM [SEQ ID NO 344] | 2.74 | 26.6 | 2.71 | 28.2 |  |  |  |  |
| TAFTSWEEYLDWVGSGVVLWNHSRIL [SEQ ID NO 313] |  |  |  |  | 2.96 | 26.6 | 2.95 | 26.8 |
| TAFTSWEEYLDWVGSGNCARLYSHQRDYSQVC [SEQ ID NO 352] | 2.64 | 26.1 | 2.66 | 24.4 |  |  |  |  |
| TAFTSWEEYLDWVGSGKNNYAYLINMPRAPGI [SEQ ID NO 325] |  |  |  |  | 2.54 | 29.1 | 2.54 | 24.7 |
| TAFTSWEEYLDWVGSGCLDRSGGCYTREGYLS [SEQ ID NO 353] | 3.05 | 30.4 | 3.06 | 29 |  |  |  |  |
| TAFTSWEEYLDWVGSGKLWNLGRV [SEQ ID NO 306] |  |  |  |  | 2.62 | 8.55 | 2.79 | 28.2 |

| Binder | ELISA [1] | s/n ratio [1] | ELISA [2] | s/n ratio [2] | ELISA [3] | s/n ratio [3] | ELISA [4] | s/n ratio [4] |
| --- | --- | --- | --- | --- | --- | --- | --- | --- |
| TAFTSWEEYLDWVGSGDCLRYRVGSSCS [SEQ ID NO 360] | 2.87 | 28.9 | 3.04 | 29.6 |  |  |  |  |
| TAFTSWEEYLDWVGSGCPFYDWRCSDFS [SEQ ID NO 328] |  |  |  |  | 2.78 | 26.5 | 2.8 | 25 |
| TAFTSWEEYLDWVGSGPHSYWLDRVQ [SEQ ID NO 332] |  |  |  |  | 2.68 | 24.6 | 2.89 | 25.3 |
| TAFTSWEEYLDWVGSGGDCYPHCRLV [SEQ ID NO 359] | 2.85 | 28.5 | 2.86 | 28.9 |  |  |  |  |
| TAFTSWEEYLDWVGSGEDVVCYGRVDYMPLCV [SEQ ID NO 330] |  |  |  |  | 2.7 | 24.8 | 2.67 | 25.2 |
| TAFTSWEEYLDWVGSGEHQFYSYRGVDVYR [SEQ ID NO 324] |  |  |  |  | 2.66 | 26.2 | 2.55 | 22.3 |
| TAFTSWEEYLDWVGSGCCSYGYEKCCNG [SEQ ID NO 349] | 2.88 | 27.2 | 2.87 | 28.6 |  |  |  |  |
| TAFTSWEEYLDWVGSGPTSGLTPS [SEQ ID NO 361] | 0.127 | 1.3 | 2.66 | 27.5 |  |  |  |  |
| TAFTSWEEYLDWVGSGSCSWNVERIRGCSV [SEQ ID NO 311] |  |  |  |  | 2.83 | 26 | 2.92 | 18.8 |
| TAFTSWEEYLDWVGSGNCWSSLRGICENLG [SEQ ID NO 307] |  |  |  |  | 2.91 | 22.5 | 2.81 | 21.7 |
| TAFTSWEEYLDWVGSGGDCGYHYMCSMT [SEQ ID NO 345] | 2.63 | 25.5 | 2.75 | 25 |  |  |  |  |
| TAFTSWEEYLDWVGSGRCGLAWCVVLVDQ [SEQ ID NO 365] | 2.8 | 28.5 | 2.62 | 20.8 |  |  |  |  |
| TAFTSWEEYLDWVGSGVCSDHYIGGKEVRC [SEQ ID NO 348] | 2.94 | 15.4 | 2.99 | 27.4 |  |  |  |  |
| TAFTSWEEYLDWVGSGQVTSLPQA [SEQ ID NO 363] | 0.11 | 1.21 | 2.46 | 27.9 |  |  |  |  |
| TAFTSWEEYLDWVGSGKCDSHYIRGVVACH [SEQ ID NO 356] | 3.03 | 30.9 | 2.95 | 30.2 |  |  |  |  |
| TAFTSWEEYLDWVGSGCYPLCRVG [SEQ ID NO 355] | 3.05 | 29.6 | 3.06 | 16.2 |  |  |  |  |
| TAFTSWEEYLDWVGSGCYPLCRVL [SEQ ID NO 364] | 3.09 | 31.9 | 2.86 | 31.1 |  |  |  |  |
| TAFTSWEEYLDWVGSGRCESKGWANTCVSE [SEQ ID NO 362] | 2.56 | 15.8 | 2.98 | 20.7 |  |  |  |  |
| TAFTSWEEYLDWVGSGSSTWHFVGGVRV [SEQ ID NO 354] | 2.88 | 29.7 | 2.71 | 24.4 |  |  |  |  |
| TAFTSWEEYLDWVGSGNPTYWLTRIS [SEQ ID NO 331] |  |  |  |  | 3.02 | 28 | 2.98 | 23.1 |

— US20200283478A1 (Genentech, published 2020)
